Experimental data reported in US20180161335.

Assays:
[1] = biological target: ARF3, purified from E. coli, preloaded with BODIPY FL GDP (UniProt P61204)
[2] = tested on: the other GTPases tested

Sequence of ARF3, purified from E. coli, preloaded with BODIPY FL GDP (P61204 whole entry): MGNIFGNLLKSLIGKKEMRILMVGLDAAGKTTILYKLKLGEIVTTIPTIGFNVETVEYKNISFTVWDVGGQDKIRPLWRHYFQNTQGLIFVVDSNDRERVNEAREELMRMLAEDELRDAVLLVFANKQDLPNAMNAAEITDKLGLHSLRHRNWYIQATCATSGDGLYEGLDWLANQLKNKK

“C9ORF72 isoform A, 2x HA-tagged, in HEK cell lysate” was tested, and the “guanine exchange activity (BODIPY-GDP fluorescence)” value [1] was “C9ORF72 isoforms A and B stimulated guanine exchange on ARF3” and the “guanine exchange activity (BODIPY-GDP fluorescence)” value [2] was “Significant activity was not observed using both C9ORF72 isoforms on the other GTPases tested”.
